Measurements taken from the supplement of paper PMC7877785.
± gives the uncertainty stated by the source.

Assay: self-splicing fitness, log relative to wild type (ln ratio); higher = more splicing; Tetrahymena group I intron in knt gene, E. coli kanamycin selection, DiMSum; sequences stand for … in CUCUCU…GGAGGGAAAAGUUAUCAGGCAUGCACCUGGUAGCUAGUCUUUAAACCAAUAGAUUGCAUCGGUUUAAAAGGCAAGACCGUCAAAUUGCGGGAAAGGGGUCAACAGCCGUUCAGUACCAAGUCUCAGGGGAAACUUUGAGAUGGCCUUGCAAAGGGUAUGGUAAUAAGCUGACGGACAUGGUCCUAACCACGCAGCCAAGUCCUAAGUCAACAGAUCUUCUGUUGAUAUGGAUGCAGUUCACAGACUAAAUGUCGGUCGGGGAAGAUGUAUUCUUCUCAUAAGAUAUAGUCGGACCUCUCCUUAAUGGGAGCUAGCGGAUGAAGUGAUGCAACACUGGAGCCGCUGGGAACUAAUUUGUAUGCGAAAGUAUAUUGAUUAGUUUUGGAGUACUCGUGGUCG
Method in brief: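 Colonies from six replicate transformations of E. coli BL21(DE3) were pooled and amplicon-sequenced on an Illumina HiSeq 2500. The library placed an intron with all eight P1ex-region nucleotides randomised inside the knt kanamycin-resistance gene on pET-22b(+), and cells grew overnight at 37°C or 30°C on LB agar with or without 25 μg/mL kanamycin (plus 100 μg/mL carbenicillin, 50 μM IPTG, 0.2% rhamnose). Fitness is the DiMSum error-weighted combination of wild-type-normalised replicate fold changes, kanamycin versus none.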

| Sequence | self-splicing fitness (ln) (30 °C) | self-splicing fitness (ln) (37 °C) |
| --- | --- | --- |
| CAACAGCAAUAUUACGACUA | -1.35 ± 0.1 | -0.653 ± 0.092 |
| CUGGAGCAAUAUUACGCCGC | – | -1.1 ± 0.38 |
| GUGAAGCAAUAUUACGCUGG | -1.42 ± 0.12 | -0.76 ± 0.13 |
| GCCUAGCAAUAUUACGACUC | -0.376 ± 0.14 | 0.0998 ± 0.17 |
| CAGUAGCAAUAUUACGUCUU | -1.17 ± 0.067 | 0.135 ± 0.076 |
| ACAUAGCAAUAUUACGAGUC | -3.91 ± 0.27 | -3.33 ± 0.25 |
| CACCAGCAAUAUUACGGCUC | -1.44 ± 0.075 | -0.828 ± 0.087 |
| UGUCAGCAAUAUUACGCCUA | -0.234 ± 0.12 | 0.77 ± 0.16 |
| AAUUAGCAAUAUUACGCCUA | 0.234 ± 0.13 | 0.297 ± 0.15 |
| CAUAAGCAAUAUUACGAAAC | -3.31 ± 0.39 | -2.38 ± 0.45 |
| CAGUAGCAAUAUUACGUGAC | -4.5 ± 0.36 | -2.23 ± 0.31 |
| CGCCAGCAAUAUUACGUUAG | -0.475 ± 0.074 | 0.385 ± 0.099 |
| AGGAAGCAAUAUUACGAGCA | -1.91 ± 0.17 | -1.7 ± 0.17 |
| CACCAGCAAUAUUACGGACA | -2.01 ± 0.1 | -0.603 ± 0.086 |
| CGGUAGCAAUAUUACGUUAU | -2.66 ± 0.25 | – |
| GGCUAGCAAUAUUACGGAUU | -0.369 ± 0.13 | 0.405 ± 0.16 |
| AAUAAGCAAUAUUACGAUAA | -1.9 ± 0.19 | -1.03 ± 0.18 |
| UUCCAGCAAUAUUACGUAGA | -0.592 ± 0.076 | -0.502 ± 0.093 |
| GUCAAGCAAUAUUACGCAGU | -3.31 ± 0.33 | -1.16 ± 0.19 |
| CCAGAGCAAUAUUACGUGGG | -3.73 ± 0.27 | -2.29 ± 0.18 |
| CAGAAGCAAUAUUACGUCCC | -2.92 ± 0.3 | -1.49 ± 0.28 |

| Sequence | self-splicing fitness (ln) (30 °C) | self-splicing fitness (ln) (37 °C) |
| --- | --- | --- |
| UUUCAGCAAUAUUACGGCUU | -1.39 ± 0.13 | -0.047 ± 0.13 |
| CGACAGCAAUAUUACGGAAA | -1.98 ± 0.21 | -2.2 ± 0.18 |
| CUGCAGCAAUAUUACGUGCG | -1.67 ± 0.093 | -1.26 ± 0.11 |
| AUAUAGCAAUAUUACGCCUA | -0.306 ± 0.17 | -0.0941 ± 0.12 |
| CAAAAGCAAUAUUACGCACU | -1.57 ± 0.091 | -0.654 ± 0.089 |
| UUGUAGCAAUAUUACGUAUU | -3.29 ± 0.32 | -2.45 ± 0.3 |
| CUGAAGCAAUAUUACGAGGU | -3.28 ± 0.11 | -2.41 ± 0.17 |
| GUGCAGCAAUAUUACGGAAA | – | -1.63 ± 0.34 |
| AAAAAGCAAUAUUACGAGAC | -3.02 ± 0.19 | -2.47 ± 0.24 |
| CGAGAGCAAUAUUACGUGCA | -3.22 ± 0.23 | -3.2 ± 0.43 |
| UGGAAGCAAUAUUACGAGAU | -3.92 ± 0.26 | -2.47 ± 0.21 |
| UGCUAGCAAUAUUACGCGCU | -1.96 ± 0.12 | -0.777 ± 0.13 |
| AGUUAGCAAUAUUACGAAGA | -1.18 ± 0.4 | -2.26 ± 0.34 |
| GGCAAGCAAUAUUACGAGAA | -1.8 ± 0.29 | -1.74 ± 0.26 |
| AUUUAGCAAUAUUACGCUAU | -3.64 ± 0.3 | -0.748 ± 0.23 |
| CAUCAGCAAUAUUACGGACC | -3.04 ± 0.24 | -0.899 ± 0.22 |
| CAGGAGCAAUAUUACGAACG | -0.795 ± 0.11 | -0.844 ± 0.13 |
| GCCCAGCAAUAUUACGCGUU | 0.0719 ± 0.046 | 0.222 ± 0.065 |
| GAACAGCAAUAUUACGUCUC | -2.17 ± 0.17 | -0.443 ± 0.16 |
| CCCGAGCAAUAUUACGGCCG | -4.1 ± 0.23 | -3.14 ± 0.32 |
| AUUCAGCAAUAUUACGUUUC | -3.75 ± 0.16 | -2.13 ± 0.24 |

| Sequence | self-splicing fitness (ln) (30 °C) | self-splicing fitness (ln) (37 °C) |
| --- | --- | --- |
| GUAAAGCAAUAUUACGGCAA | -0.0595 ± 0.1 | -0.0616 ± 0.16 |
| UUUGAGCAAUAUUACGGCAC | -2.87 ± 0.41 | -2.56 ± 0.31 |
| UUCGAGCAAUAUUACGAAGU | – | -1.57 ± 0.32 |
| UGCGAGCAAUAUUACGCGCU | -3.43 ± 0.36 | – |
| AAACAGCAAUAUUACGUACU | -0.273 ± 0.06 | -0.159 ± 0.073 |
| AAACAGCAAUAUUACGAUAU | -1.82 ± 0.08 | -0.63 ± 0.097 |
| AUAAAGCAAUAUUACGUCUU | 0.183 ± 0.05 | 0.29 ± 0.073 |
| CCCUAGCAAUAUUACGGCCC | -3.9 ± 0.27 | -0.5 ± 0.38 |
| ACGUAGCAAUAUUACGACAU | -0.126 ± 0.012 | 0.0543 ± 0.032 |
| UAUUAGCAAUAUUACGAACC | -0.688 ± 0.36 | – |
| UUACAGCAAUAUUACGAAAG | -2.87 ± 0.29 | -2.73 ± 0.33 |
| UCCGAGCAAUAUUACGUCUA | -3.11 ± 0.23 | -3 ± 0.24 |
| CGGAAGCAAUAUUACGCCAG | -0.858 ± 0.27 | -0.336 ± 0.26 |
| UCCGAGCAAUAUUACGAGGC | -3.1 ± 0.36 | -1.7 ± 0.39 |
| CCCUAGCAAUAUUACGGACU | -3.48 ± 0.3 | -2 ± 0.32 |
| UGGGAGCAAUAUUACGUAUG | -3.01 ± 0.14 | -1.84 ± 0.22 |
| CAGAAGCAAUAUUACGUAGC | -3.8 ± 0.27 | -3.32 ± 0.28 |
| CCGGAGCAAUAUUACGACAG | -0.593 ± 0.13 | -0.569 ± 0.14 |
| CAUGAGCAAUAUUACGUAAC | -3.38 ± 0.35 | -2.61 ± 0.31 |
| UCGGAGCAAUAUUACGCACA | -2.26 ± 0.46 | -2.22 ± 0.43 |
